Test results from patent US20180263919A1, “THERAPEUTIC ELECTROSPUN FIBER COMPOSITIONS” (The Johns Hopkins University, priority 2006, published 2018).

Tests used:
[1] = in vivo, iv; cited from earlier work
PC12 cells [2] = conditions: Thoenen and Bard; cited from earlier work
PC12 cells [3] = test: Bioactivity of released NGF: differentiation of PC12 cells into neurons; type: cell-based, rat; conditions: positive control, fresh NGF at 400 ng/ml
[4] = rat, in vivo; cited from earlier work

Row | Substance | biologic half-life [1] | threshold for induction of PC12 cell differentiation (PC12 cells [2]) | percentage of PC12 cells induced to differentiate (PC12 cells [3]) | elimination half-life [4]
1 | PDGF | 2 minutes |  |  | 
2 | NGF: Recombinant human n-nerve growth factor (NGF) from R&D Systems |  | around 0.5 ng/ml | 20-55% | less than 5 hours
3 | bFGF: basic fibroblast growth factor | 3 minutes |  |  | 
